The record followed here is PMC10895266, “The structure of the Caenorhabditis elegans TMC-2 complex suggests roles of lipid-mediated subunit contacts in mechanosensory transduction” (Proceedings of the National Academy of Sciences of the …, 2024).

The data set concerns the molecule itself. As to the kind of experiment: cryo-EM structure; single-particle cryo-EM of the native TMC-2 complex isolated from worms (anti-FLAG affinity, SEC, GDN, 1 mM CaCl2); cis-dimeric particles selected.

B1: TMC-2 (transmembrane channel-like protein 2), native, tagged with mVenus-3xFLAG at the endogenous locus (natural protein, C. elegans, UniProt Q11069 1-1203, looked up)
chain: MPKSGAHQPLVRHDTDDGGETGQSVKSLADVSEEEIDSRMSRRSSVIADLLSLFRRSSSVLVRPHTRLGNPNFDDDDDEFDEEDDKEASKDRILKKIQQKKEIIQKLRGQPWYMKRKRRTLKVAQKHLQQQEAKVSKARLYKAEAGRRLTQASRWLDNLKIYLIPWEAKIRKIESHFGSVVSSYFTFHRWVLGVNITITFIMCMFVVIPEWLADSRTQFGDDRYNKTKAIKVMPPAVRARADELSTVWDFGGYFQYSLLFYGFYSKETFFGETIKYRVPVAYFFCNIFILGFSLFIILRKMAANNRRGTLSSGKTQQYLFNWKAFTGWDYTIGNPETAGNVYMANVIKFREAINDDKQKPSDKHPWIRFVARVLTNLFICAMYVFSIWAIMQCGTLKGEHFFAQNATAITISLITLVFPNIFDLLGKIEKLHPRNALRFQLGRVLVLYILNYYTLIYSLMLQLEHLQKEKNASDNPISALGHPGDAIGRTIRETVLPRYPVDNNPHTYYSYAPVTTTPIPATSSWTTVLPDFGPFGVYNPKASVTKDDTVFSSPVVETHMFGPNSDWNETTVNAASPTGATTRASLRMSQGGLCWETIIGQEITKLVTMDLYMTVASIFLIDFLRGLACRYLNLYWPWDLERTFPEYGEFKVAENVLHLVNNQGMIWLGLFFVPLLPMLNNIKLIILMYIRGWAAMTCNVPASQIFRASRSSNFFFALLILFLFLCTLPVGFVIASKTPSKSCGPFGNQSFFYSVITDVLHENLDKTLVNGIKYSLSPGIIIPVLVLLSLVIYFLIAMVTGLSQANQDLSFQLMVERTEEKKKIFELAGGKKKKSKDNTFGKQKPKQLLPPPTKGVSSDDDSQHNRSTAKSVSGRQFVPSLGSVSEVDHSTGEEQSSDSESTTSSLPPKLSLRQRFLVCIGWADPNKYGRHDDIEMEEGGGRLRELSTGSETDSDDEDSEKSNRDMSYRTAIQSFDQNSQSASASSSKSTTTAPSNSEMRIEITENPLHTYITPLRIEKKSSASSSSSSHQPSSSIEKQAARRLLQPISTTHNIRYGVATVENSSQDPTRPPSTDDSLGDPALHEPLWANLNPHSSYTSAMMSPIMNEVMSNDETTDDEKGRLIPDRPPIPHSPRELKRLKREKDQQSESGSKPSTPRPPRFRISMSPPRKPPSEKNDSDSSNRKYEMRVEKSPKKPKKSDND
modifications: N-glycans at N225 and N748
notes: TMC-2, C. elegans, endogenous tmc-2 gene (Wormbase B0416.1a); tag inserted prior to the stop codon; residues M1 to D1203 named; modelled 89-471, 583-813; A 3C (PreScission) site lies between mVenus and 3xFLAG; The complex was captured on anti-FLAG resin by the 3xFLAG tag, which was cut off on elution with 3C protease before SEC, mass spectrometry and cryo-EM; also called TMC-2-mVenus; …
For orientation: stoichiometry N means a count of units in the complex or per binding partner. As to B1, the “stoichiometry N” value was found to be 2.
